# What was measured:
# [1] = molecular target: T1, human CD40 (hCD40) expressed on cells (human, UniProt P25942 21-277); assay: cell-based or functional assay
# [2] = molecular target: T1, human CD40 (hCD40) expressed on cells; assay: cell-based or functional assay; remark: listed apart in the source
# [3] = molecular target: T1, human CD40 (hCD40) expressed on cells; assay: cell-based or functional assay; remark: listed apart in the source
# [4] = molecular target: T1, human CD40 (hCD40) expressed on cells; assay: cell-based or functional assay; remark: listed apart in the source
# [5] = molecular target: T1, human CD40 (hCD40) expressed on cells; assay: cell-based or functional assay; remark: listed apart in the source
# [6] = molecular target: T1, human CD40 (hCD40) expressed on cells; assay: cell-based or functional assay; remark: listed apart in the source
# [7] = molecular target: T1, human CD40 (hCD40) expressed on cells; assay: cell-based or functional assay; remark: listed apart in the source
# [8] = molecular target: T1, human CD40 (hCD40) expressed on cells; assay: cell-based or functional assay; remark: listed apart in the source
# [9] = molecular target: T1, human CD40 (hCD40) expressed on cells; assay: cell-based or functional assay; remark: listed apart in the source
# [10] = molecular target: T1, human CD40 (hCD40) expressed on cells; assay: flow cytometry, Ramos 2G6.4C10 cells
# Method: (§1) Cells were washed with 2% FBS (w/v) in 1×PBS (flow cytometry staining buffer) by centrifugation with benchtop Centrifuge 5810R (Eppendorf®, Hamburg, Germany). Cells were incubated for 30 minutes at 4° C. with serial dilutions of following antibodies ranging from 1.7 pM to 100 nM in flow cytometry staining buffer (1) anti-CD40×CD40 bispecific antibodies, or (2) parental anti-CD40 antibodies (bivalent antibodies comprising 2 fragment antigen-binding [Fab] arms identical to one of the two anti-CD40 Fab of bispecific anti-CD40×CD40 antibodies), or (3) anti-CD40×Irrelevant antibodies (bivalent antibodies that incorporate one Fab arm identical to one of anti-CD40 Fab of anti-CD40×CD40 antibodies and another Fab arm specific to an irrelevant antigen, i.e. birch pollen main allergen Bet v1), or (4) human IgG4 isotype control antibodies with Fc mutation. After washing, cell bound antibodies were detected with 2.5 μg/ml Allophycocyanin (APC)-conjugated goat anti-human IgG antibody specific for the Fcγ fragment (Jackson Immunoresearch, West Grove, PA) for 30 minutes at 4° C. Cells were washed and subsequently fixed with 50% solution of Cytofix™ Fixation Buffer (BD, Franklin Lakes, NJ) in flow cytometry staining buffer for 20 minutes at room temperature. Cells were washed and resuspended in flow cytometry staining buffer and stored at 4° C. for downstream flow cytometry analysis.
# (§2) Acquisition of fluorescence signals were recorded on the ZE5 Cell Analyzer (Bio-Rad, Hercules, CA) according to the manufacturer's recommended procedure and flow cytometry data analysis was performed using the open-source R packages flowCore, flowStats, flowDensity, ggCyto, and flowAI. Multiplexed samples were deconvoluted and individual cell populations were identified based on their unique CellTrace™ fluorescence signature. APC Median Fluorescence intensity (MFI) was recorded to indicate the binding intensity of each antibody over a range of concentrations. Antibodies with MFI greater than 1500 at the highest tested concentration (100 nM) were classified as specific binders. In addition, direct binding signals (APC MFI) were analyzed as a function of the antibody concentration and data were fitted with a sigmoidal (four-parameter logistic) dose-response model using GraphPad Prism™ software.
# [11] = molecular target: T1, human CD40 (hCD40) expressed on cells; assay: flow cytometry, HEK293/D9/hCD40 cells
# Method: as §1, §2
# [12] = molecular target: T2, Macaca fascicularis CD40 (mfCD40) expressed on HEK293/D9/mfCD40 cells (Macaca fascicularis, UniProt G7PG38 21-278); assay: flow cytometry, HEK293/D9/mfCD40 cells
# T2 construct: whole, on cells; also called monkey CD40
# Method: as §1, §2
# [13] = molecular target: T3, human CD40 extracellular domain expressed with a C-terminal myc-myc-hexahistidine tag (human); assay: ELISA blocking of 40 nM hCD40-mmH binding to 9His-hCD40L
# T3 construct: also called hCD40-MMH; hCD40-mmH
# T3 sequence (chain, as listed by the source limits assumed): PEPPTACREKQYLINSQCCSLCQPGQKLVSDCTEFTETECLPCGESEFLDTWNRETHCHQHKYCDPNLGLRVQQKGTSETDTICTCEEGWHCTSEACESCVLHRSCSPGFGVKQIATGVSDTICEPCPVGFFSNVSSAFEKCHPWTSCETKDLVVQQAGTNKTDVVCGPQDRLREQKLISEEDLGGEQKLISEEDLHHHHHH
# Text: An ELISA-based blocking assay was developed to determine the ability of C40×CD40 bispecific antibodies to block the binding of the hCD40 monomer to plate-coated hCD40L. The recombinant human CD40-mmH protein (hCD40-MMH; REGN3094; SEQ ID NO: 53) used in the experiments comprises a portion of the human CD40 extracellular domain (amino acids P20-R193) fused to 2×Myc peptide and 6×histadine (SEQ ID NO: 1110) at the C-terminus of human CD40, and the human CD40L (accession #NM_000074.2) with amino acids E108-L261 of the extracellular domain with 9×His-2×(SGGG)-IGER at the N-terminus (9His-hCD40L) was commercially obtained from Biolegend.
# In the blocking assay, 9His-hCD40L was passively absorbed at a concentration of 5 μg/mL in PBS on a 96-well microtiter plate overnight at 4° C. […] In a separate 96-well microtiter plate, a fixed amount of 40 nM hCD40-mmH was pre-mixed with one of the following antibodies, at concentrations ranging from 977 pM to 1 μM in PBS+0.5% BSA: (1) CD40×CD40 bispecific antibodies (REGN16431, REGN16432, REGN16634, and REGN16335); (2) parental CD40 mAbs (bivalent antibodies comprising 2 fragment antigen-binding [Fab] arms identical to one of anti-CD40 Fab of CD40×CD40 antibodies); (3) CD40×Irrelevant antibodies (bivalent antibodies that incorporate one Fab arm identical to one of anti-CD40 Fab of CD40×CD40 antibodies and another Fab arm specific to an irrelevant antigen); and (4) human IgG4 with Fc mutation isotype control antibodies (REGN7540 and REGN4513). The fixed concentration of hCD40-mmH was selected to be near the concentration (EC₅₀ value) that generated 50% of the maximal binding to the plate-adhered 9His-hCD40L. After one-hour incubation, the antibody-antigen complexes were transferred to the microtiter plate coated with 9His-hCD40L. After one hour incubation at room temperature, the plates were washed, and plate-bound hCD40-mmH protein was detected with horseradish peroxidase (HRP) conjugated goat anti-c-Myc antibody. The plates were then developed using TMB substrate solution (BD Biosciences) according to the manufacturer's recommended procedure and the absorbance at 450 nm (OD₄₅₀) was measured on a SpectraMax i3×plate reader.
# T1 sequence (P25942 21-277): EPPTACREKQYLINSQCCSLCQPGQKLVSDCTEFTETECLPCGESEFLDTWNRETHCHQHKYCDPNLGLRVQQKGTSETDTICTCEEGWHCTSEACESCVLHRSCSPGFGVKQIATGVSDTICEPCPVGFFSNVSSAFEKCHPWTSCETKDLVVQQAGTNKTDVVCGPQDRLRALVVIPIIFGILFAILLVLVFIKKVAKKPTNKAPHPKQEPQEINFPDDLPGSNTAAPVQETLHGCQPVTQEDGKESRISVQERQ
Binder,"IC50, 500 pM hCD40L, Ramos NFkB-luc [1] [M]","Max % activation, no ligand, Ramos NFkB-luc [1] [%]","Max % inhibition, 500 pM hCD40L, Ramos NFkB-luc [1] [%]","IC50, 900 pM hCD40L, Raji NFkB-luc [2] [M]","Max % activation, no ligand, Raji NFkB-luc [2] [%]","Max % inhibition, 900 pM hCD40L, Raji NFkB-luc [2] [%]","IC50, 10 nM hCD40L, THP-1 NFkB-luc [3] [nM]","Max % activation, no ligand, THP-1 NFkB-luc [3] [%]","Max % inhibition, 10 nM hCD40L, THP-1 NFkB-luc [3] [%]","% max blockade relative to no mAb, IL-6, donor 1 [4] [%]","% max blockade relative to no mAb, IL-6, donor 2 [4] [%]","% max blockade relative to no mAb, IL-6, donor 3 [4] [%]","% max blockade relative to no mAb, IL-10, donor 1 [5] [%]","% max blockade relative to no mAb, IL-10, donor 2 [5] [%]","% max blockade relative to no mAb, IL-10, donor 3 [5] [%]","% max blockade relative to no mAb, TNFa, donor 1 [6] [%]","% max blockade relative to no mAb, TNFa, donor 2 [6] [%]","% max blockade relative to no mAb, TNFa, donor 3 [6] [%]","% max blockade relative to no mAb, IL-6, assay #2 donor 1 [7] [%]","% max blockade relative to no mAb, IL-6, assay #2 donor 2 [7] [%]",also measured
"REGN16334 (bispecific antibody, human IgG4 S228P, kappa, D1 arm from 21519P2, D2 arm from 21520P2, common light chain; also called CD40xCD40 (21519 x 21520)) heavy 1: QLQLQESGPGLVRPSETLSLTCSVSGASMNTNNYYWGWIRQPPGKGLEWIGSGYYNGNTYYNPSLKSRVTISVDTSKNQFSLKLNSVTAADTAVYYCARQTPPRIIGSPNIWGQGTMVTVSSASTKGPSVFPLAPCSRSTSESTAALGCLVKDYFPEPVTVSWNSGALTSGVHTFPAVLQSSGLYSLSSVVTVPSSSLGTKTYTCNVDHKPSNTKVDKRVESKYGPPCPPCPAPGGGGPSVFLFPPKPKDTLMISRTPEVTCVVVDVSQEDPEVQFNWYVDGVEVHNAKTKPREEQFNSTYRVVSVLTVLHQDWLNGKEYKCKVSNKGLPSSIEKTISKAKGQPREPQVYTLPPSQEEMTKNQVSLTCLVKGFYPSDIAVEWESNGQPENNYKTTPPVLDSDGSFFLYSRLTVDKSRWQEGNVFSCSVMHEALHNHYTQKSLSLSLGK heavy 2: EVQLVESGGGLVQPGGSLRLSCAASGFTFGSYGMAWVRQAPGKGLEWVSAISGSGDYTNYADSVKRRFTISRDNSKNTLYLQMSSLRAEDTAVYYCAKEKTGTTGYLYSGMDVWGQGTTVTVSSASTKGPSVFPLAPCSRSTSESTAALGCLVKDYFPEPVTVSWNSGALTSGVHTFPAVLQSSGLYSLSSVVTVPSSSLGTKTYTCNVDHKPSNTKVDKRVESKYGPPCPPCPAPGGGGPSVFLFPPKPKDTLMISRTPEVTCVVVDVSQEDPEVQFNWYVDGVEVHNAKTKPREEQFNSTYRVVSVLTVLHQDWLNGKEYKCKVSNKGLPSSIEKTISKAKGQPREPQVYTLPPSQEEMTKNQVSLTCLVKGFYPSDIAVEWESNGQPENNYKTTPPVLDSDGSFFLYSRLTVDKSRWQEGNVFSCSVMHEALHNRFTQKSLSLSPGK light: not shown",6.93e-11,6,91,5.76e-11,13,113,0.553,1,98,84.5,92,92,74.2,91.4,92.4,44,63.5,68.5,88.9,89.2,"% max blockade relative to no mAb, IL-10, assay #2 donor 1 [8]: 87.7%; % max blockade relative to no mAb, IL-10, assay #2 donor 2 [8]: 89.9%; % max blockade relative to no mAb, TNFa, assay #2 donor 1 [9]: 62.8%; % max blockade relative to no mAb, TNFa, assay #2 donor 2 [9]: 51.1%; EC50 [10]: 2 nM; MFI at 100 nM [10]: 3760 MFI; EC50 [11]: 2 nM; MFI at 100 nM [11]: 29000 MFI; EC50 [12]: 9.1 nM; MFI at 100 nM [12]: 41700 MFI; % Blocking at 1 uM mAb [13]: 98%; IC50 [13]: 32 nM"
"REGN16335 (bispecific antibody, human IgG4 S228P, kappa, D1 arm from 30027P2, D2 arm from 21520P2, common light chain; also called CD40xCD40 (30027 x 21520)) heavy 1: EVQLVESGGGLVQPGGSLRLSCAASGFTFSSYAMNWVRQAPGKGLEWVSIISGTIGKTYYADSVKGRFTISRDNSKNTLYLQMNSLRGEDTAVYYCAKDTERDITGSPFDYWGQGTLVTVSSASTKGPSVFPLAPCSRSTSESTAALGCLVKDYFPEPVTVSWNSGALTSGVHTFPAVLQSSGLYSLSSVVTVPSSSLGTKTYTCNVDHKPSNTKVDKRVESKYGPPCPPCPAPGGGGPSVFLFPPKPKDTLMISRTPEVTCVVVDVSQEDPEVQFNWYVDGVEVHNAKTKPREEQFNSTYRVVSVLTVLHQDWLNGKEYKCKVSNKGLPSSIEKTISKAKGQPREPQVYTLPPSQEEMTKNQVSLTCLVKGFYPSDIAVEWESNGQPENNYKTTPPVLDSDGSFFLYSRLTVDKSRWQEGNVFSCSVMHEALHNHYTQKSLSLSLGK heavy 2: EVQLVESGGGLVQPGGSLRLSCAASGFTFGSYGMAWVRQAPGKGLEWVSAISGSGDYTNYADSVKRRFTISRDNSKNTLYLQMSSLRAEDTAVYYCAKEKTGTTGYLYSGMDVWGQGTTVTVSSASTKGPSVFPLAPCSRSTSESTAALGCLVKDYFPEPVTVSWNSGALTSGVHTFPAVLQSSGLYSLSSVVTVPSSSLGTKTYTCNVDHKPSNTKVDKRVESKYGPPCPPCPAPGGGGPSVFLFPPKPKDTLMISRTPEVTCVVVDVSQEDPEVQFNWYVDGVEVHNAKTKPREEQFNSTYRVVSVLTVLHQDWLNGKEYKCKVSNKGLPSSIEKTISKAKGQPREPQVYTLPPSQEEMTKNQVSLTCLVKGFYPSDIAVEWESNGQPENNYKTTPPVLDSDGSFFLYSRLTVDKSRWQEGNVFSCSVMHEALHNRFTQKSLSLSPGK light: not shown",3.86e-11,5,93,4.94e-11,9,102,0.221,3,98,83.2,91.4,91.4,78.5,93.6,89.8,45,64.7,61.6,88.4,87,"% max blockade relative to no mAb, IL-10, assay #2 donor 1 [8]: 88.5%; % max blockade relative to no mAb, IL-10, assay #2 donor 2 [8]: 87.8%; % max blockade relative to no mAb, TNFa, assay #2 donor 1 [9]: 62.4%; % max blockade relative to no mAb, TNFa, assay #2 donor 2 [9]: 52.5%; EC50 [10]: 1 nM; MFI at 100 nM [10]: 3750 MFI; EC50 [11]: 1.6 nM; MFI at 100 nM [11]: 28900 MFI; EC50 [12]: 2.4 nM; MFI at 100 nM [12]: 47300 MFI; % Blocking at 1 uM mAb [13]: 96%; IC50 [13]: 32 nM"
